Measurements reported in article PMC7093453.
Blank lines part the entries; values can stand above or below the substance they belong to.

Columns and labels:
[1] = molecular target: RCC: Rba. sphaeroides reaction centre with SpyCatcherΔ attached directly to the N-terminus of PufL (Rhodobacter sphaeroides) (UniProt P0C0Y9)
[2] = molecular target: wild-type (WT) reaction centre (RC) of Rhodobacter sphaeroides (Rhodobacter sphaeroides) (UniProt P0C0Y8)
[3] = molecular target: RCC: Rba. sphaeroides reaction centre with SpyCatcherΔ attached directly to the N-terminus of PufL (Rhodobacter sphaeroides) (UniProt P0C0Y9); remark: listed apart in the source
[4] = molecular target: RC4C: Rba. sphaeroides reaction centre with SpyCatcherΔ attached to the N-terminus of PufL via a four residue linker (Rhodobacter sphaeroides) (UniProt P0C0Y9)

E (P870): apparent energy transfer efficiency from the rate of RC P870 photobleaching (650 nm excitation), LHCII#RC chimera in solution [1]: 22.8%
EFL: apparent energy transfer efficiency from quenching of LHC emission, LHCII#RC chimera in solution [1]: 19.6%
E (P870): apparent energy transfer efficiency from the rate of RC P870 photobleaching (650 nm excitation), mixture in solution [2]: 1.2%
EFL: apparent energy transfer efficiency from quenching of LHC emission, mixture in solution [2]: 0.8%
Substance: LHCII-T: full SpyTag sequence added to the C-terminus of the full A. thaliana Lhcb1

E (P870): apparent energy transfer efficiency from the rate of RC P870 photobleaching (650 nm excitation), RC#LHCI#RC chimera in solution [1]: 29.1%
EFL: apparent energy transfer efficiency from quenching of LHC emission, RC#LHCI#RC chimera in solution [1]: 27.4%
E (P870): apparent energy transfer efficiency from the rate of RC P870 photobleaching (650 nm excitation), mixture in solution (molar ratio of RC to LHC two) [2]: 3.3%
EFL: apparent energy transfer efficiency from quenching of LHC emission, mixture in solution [2]: 9.3%
Ea1: efficiency of energy transfer to the Lhca1-connected RC in the RC#LHCI#RC chimera, from E (P870) (Eq. 5) [3]: 13.9%
Ea1: efficiency of energy transfer to the Lhca1-connected RC in the RC#LHCI#RC chimera, from EFL (Eq. 5) [3]: 10.4%
Substance: Td-LHCI-Td: A. thaliana LHCI heterodimer of SpyTagΔ-adapted Lhca1 (Td-L1) and SpyTagΔ-adapted Lhca4 (Td-L4) (complex)

E (P870): apparent energy transfer efficiency from the rate of RC P870 photobleaching (650 nm excitation), LHCI#RC chimera in solution [1]: 20.2%
EFL: apparent energy transfer efficiency from quenching of LHC emission, LHCI#RC chimera in solution [1]: 20.7%
E (P870): apparent energy transfer efficiency from the rate of RC P870 photobleaching (650 nm excitation), mixture in solution [2]: 1.3%
EFL: apparent energy transfer efficiency from quenching of LHC emission, mixture in solution [2]: 10.3%
Ea4: apparent energy transfer efficiency for the LHCI#RC chimera, from E (P870) [3]: 20.1%
Substance: LHCI-Td: A. thaliana LHCI heterodimer of unadapted Lhca1 (L1) and SpyTagΔ-adapted Lhca4 (Td-L4) (from UniProt Q01667 36-241) (complex)

E (P870): apparent energy transfer efficiency from the rate of RC P870 photobleaching (650 nm excitation), RC#LHCII chimera in solution [4]: 21%
EFL: apparent energy transfer efficiency from quenching of LHC emission, RC#LHCII chimera in solution [4]: 20.3%
Substance: Td-dLHCII: SpyTagΔ added to the N-terminus of the truncated A. thaliana Lhcb1
